From paper PMC12796488, “Distinct structural features of Pseudomonas aeruginosa ATP synthase revealed by cryo-electron microscopy” (Nature Communications, 2025)

Molecular target: the molecule itself
Assay: cryo-EM structure; purified F1Fo complex in digitonin; 10 mM MgADP and 230 uM compound #5 added, 1 h on ice before freezing; maps at 2.0-3.0 Å

B1: P. aeruginosa ATP synthase subunit c (natural protein, Pseudomonas aeruginosa, UniProt Q9HT15 1-85, looked up)
chain: METVVGLTAIAVALLIGLGALGTAIGFGLLGGKFLEGAARQPEMVPMLQVKMFIVAGLLDAVTMIGVGIALFFTFANPFVGQIAG
notes: ATP synthase subunit c of Pseudomonas aeruginosa, expressed from the whole operon (atpIBEFHAGDC) plasmid pASH20; A ring of ten copies in the cryo-EM maps; also called c subunit; c-ring; source: E. coli DK8, purified as part of the whole F1Fo complex (digitonin extraction, Talon resin, Superose 6 SEC); copies: 10
  stoichiometry N: 10
